{"source": "patent US20200071671A1", "biological_target": "hCCNT1-C261Y (human) (UniProt O60563)", "sequence (O60563 whole entry C261Y)": "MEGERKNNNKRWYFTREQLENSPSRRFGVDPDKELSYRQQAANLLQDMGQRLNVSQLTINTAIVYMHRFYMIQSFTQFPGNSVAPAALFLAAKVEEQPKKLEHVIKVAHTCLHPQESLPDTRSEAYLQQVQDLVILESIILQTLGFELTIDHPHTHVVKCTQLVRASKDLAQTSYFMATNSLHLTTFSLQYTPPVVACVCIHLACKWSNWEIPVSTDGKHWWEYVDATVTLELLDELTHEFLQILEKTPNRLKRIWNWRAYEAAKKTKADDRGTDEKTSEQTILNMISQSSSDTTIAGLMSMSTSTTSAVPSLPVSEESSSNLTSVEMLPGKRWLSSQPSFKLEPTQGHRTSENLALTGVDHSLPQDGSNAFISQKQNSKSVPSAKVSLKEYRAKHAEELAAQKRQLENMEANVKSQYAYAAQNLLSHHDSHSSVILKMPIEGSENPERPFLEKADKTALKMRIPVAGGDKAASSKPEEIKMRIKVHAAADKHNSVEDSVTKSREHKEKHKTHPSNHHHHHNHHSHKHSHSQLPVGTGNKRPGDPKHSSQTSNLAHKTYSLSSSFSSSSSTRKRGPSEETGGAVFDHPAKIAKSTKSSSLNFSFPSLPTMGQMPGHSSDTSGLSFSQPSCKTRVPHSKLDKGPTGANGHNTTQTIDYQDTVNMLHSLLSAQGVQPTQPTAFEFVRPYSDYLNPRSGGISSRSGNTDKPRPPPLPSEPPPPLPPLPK", "assay": "cell-based or functional assay", "data": [{"substance": "HIV-1 Tat protein", "values": [{"measurement": "fold decrease in Tat-dependent GFP expression, dual-colour single-round HIV-1 reporter virus, hCCNT1-C261Y Jurkat cells against wild-type parental cells", "result": "> 16", "unit": "fold"}]}]}
